# Data: US20200340016
# Assays:
# Test in all cases: cell_activity
# [1] = test system: ZFN pair 30035 / 30054 (AAVS1) (artificial)
# [2] = test system: ZFN pair 30035 / 30054 ELD_KKR_Q481E Q481E (FokI, both ZFNs) (artificial)
# [3] = test system: ZFN pair 30035 / 30054 ELD_KKR_I479T I479T (FokI, both ZFNs) (artificial)
# [4] = test system: ZFN pair 30035 / 30054 ELD_KKR_K525P K525P (FokI, both ZFNs) (artificial)
# [5] = test system: ZFN pair 30035 / 30054 ELD_KKR_R416D R416D (FokI, both ZFNs) (artificial)
# [6] = test system: ZFN pair 30035 / 30054 ELD_KKR_K525A K525A (FokI, both ZFNs) (artificial)
# [7] = test system: ZFN pair 30035 / 30054 ELD_KKR_R416E R416E (FokI, both ZFNs) (artificial)
# [8] = test system: ZFN pair 52742-ELD / 52774-KKR K525S K525S (FokI of 52774) (artificial); conditions: 400 ng mRNA
# [9] = test system: ZFN pair 52742-ELD / 52774-KKR R416S R416S (FokI of 52774) (artificial); conditions: 400 ng mRNA
# [10] = test system: ZFN pair 52742-ELD / 52774-KKR K387S K387S (FokI of 52774) (artificial); conditions: 400 ng mRNA
# [11] = test system: ZFN pair 52742-F1RQ;F3RQ;F5RQ / 52774 R(-5)Q in F1, F3 and F5 of 52742 (artificial); conditions: 6 ug dose
# [12] = test system: ZFN pair SBS52742-ELD / SBS52774-KKR (TRAC) (artificial)
# [13] = test system: ZFN pair 52742-ELD R422S / 52774-KKR R422S (FokI of 52742) (artificial); conditions: 400 ng mRNA
# [14] = test system: ZFN pair 52742-ELD R447S / 52774-KKR R447S (FokI of 52742) (artificial); conditions: 400 ng mRNA
# [15] = test system: ZFN pair SBS51857-ELD / SBS51949-KKR R416S R416S (FokI of 51949) (artificial)
# [16] = test system: ZFN pair SBS51857-ELD / SBS51949-KKR (BCL11A) (artificial)
# [17] = test system: ZFN pair SBS63014 / SBS65527 (3x R-5Q / 5x R-5Q + FokI R416S) three and five finger R(-5)Q; FokI R416S in 65527 (artificial); conditions: 60 ug dose; no evidence of cleavage
# [18] = test system: ZFN pair SBS51857-ELD / SBS51949-KKR K525S K525S (FokI of 51949) (artificial); conditions: 60 ug/mL each mRNA
# [19] = test system: ZFN pair SBS63014 / SBS65526 (3x R-5Q / 4x R-5Q + FokI R416S) three and four finger R(-5)Q; FokI R416S in 65526 (artificial); conditions: 60 ug dose
# [20] = test system: ZFN pair SBS51857-ELD / SBS51949-KKR K448S K448S (FokI of 51949) (artificial); conditions: 60 ug/mL each mRNA
# [21] = test system: ZFN pair SBS63014 / SBS65721 (3x R-5Q / 3x R-5Q + FokI R416S) three finger R(-5)Q in each ZFN; FokI R416S in 65721 (artificial); conditions: 60 ug dose
# [22] = test system: ZFN pair SBS51857-ELD / SBS51949-KKR R447S R447S (FokI of 51949) (artificial); conditions: CD34+ cells, near background
# [23] = CD34+ cells, 2 ug mRNA each ZFN
substance,measurement,setting,value
AAVS1 intended target,activity,[1],57.8 % indels
same,activity,[2],69.9 % indels
same,activity,[3],52.5 % indels
same,activity,[4],0.01 % indels
same,activity,[5],70.6 % indels
same,activity,[6],73.8 % indels
same,activity,[7],91.1 % indels
CCATATGCAGAAAACAGAAACTGTACCCCTTCCTTACACC (double strand) [off-target XSKWTVWD (OT16)],activity,[8],0.96 % indels
same,activity,[9],0.74 % indels
same,activity,[10],3.12 % indels
same,activity,[11]; parent 19.16,1.43 % indels
same,activity,[12]; 400 ng mRNA each ZFN,7.39 % indels
same,activity,[13],1.18 % indels
same,activity,[14],0.32 % indels
CCGGAGAGAAGGCTCCGGTTCAGCACTGAGATCAGGACGG (double strand) [off-target KXWACMTR (OT3)],activity,[11]; parent 1.59,0.19 % indels
same,activity,[12]; 6 ug dose,1.59 % indels
CCTACCCCCACCACCTCACCTTCCCTCAGCCTTGTGTTTCAGCCCCAGTTAGCTGCCCTTAGTTGCTGATGTATTG (double strand) [off-target GJZEIYTO (OT2)],activity,[15]; 60 ug/mL each mRNA,0.31 % indels
same,activity,[16]; 60 ug/mL each mRNA,2.81 % indels
CTTCCTGCGGGGTTTTGTGCAAATAACCCATGCTCGGGAGCGAGGCCCTGGGAAGGAGTATCTCGCTTCTTTGGGT (double strand) [off-target NIFMAEVG (OT1)],activity,[17],0.03 % indels
same,activity,[18]; parent 21.96,0.89 % indels
same,activity,[15]; [23],0.75 % indels
same,activity,[19],0.17 % indels
same,activity,[20]; parent 21.96,8.9 % indels
same,activity,[16]; [23],9.04 % indels
same,activity,[21]; parent 28.0,0.55 % indels
same,activity,[22],0.05 % indels
GACTCATTCATCCACTCATTCTGAGCACTTGCTGCACACTAGGCCCTGGGCTGGGGCTTCAGCCCAGGAGTTCACT (double strand) [off-target ZJCRPAXW (OT4)],activity,[15]; 60 ug/mL each mRNA,0.65 % indels
same,activity,[16]; 60 ug/mL each mRNA,1.12 % indels
TCAGTGATTGGGTTCCGAATCCTCCTCCTGAAAGTGGCCG (double strand) [TRAC intended target JBSCKVMP],activity,[8],88.3 % indels
same,activity,[9],87.1 % indels
same,activity,[10],89.1 % indels
same,activity,[11]; parent 62.59,70 % indels
same,activity,[12]; 400 ng mRNA each ZFN,90.7 % indels
same,activity,[13],89 % indels
same,activity,[14],70.3 % indels
TCCTCCATGCTCAGAAAGCCTTTCTTGGAGCCAGGCACACAGGAAATGTTAGCTAGTTAGCATTGGCTCTAATACT (double strand) [off-target PEVYOHIU (OT3)],activity,[17],0.02 % indels
same,activity,[18],0.13 % indels
same,activity,[15]; [23],0.08 % indels
same,activity,[19]; no evidence of cleavage,0.02 % indels
same,activity,[20],4.4 % indels
same,activity,[16]; [23],0.65 % indels
same,activity,[21]; parent 4.77,0.04 % indels
same,activity,[22],0.03 % indels
TGGCCCTTTGCAGAAAAGGTTGTTGAACCCTACCGTAAAC (double strand) [off-target XVFENVRX (OT11)],activity,[8],0.79 % indels
same,activity,[9],0.93 % indels
same,activity,[10],3.27 % indels
same,activity,[11]; parent 4.32,0.47 % indels
same,activity,[12]; 400 ng mRNA each ZFN,5.82 % indels
same,activity,[13],1.09 % indels
same,activity,[14],0.14 % indels
